Test results from paper PMC12421802.

Molecular target: mutant MAP7D1 p.R201W (MAP7D1:c.601C>T), His/Myc-tagged (human) (UniProt Q3KQU3)
Test: pull-down; 600 µg lysate of HEK293T cells overexpressing His/Myc-MAP7D1 (wt or mutant) incubated with MagneHis Ni particles in 100 mM HEPES, 10 mM imidazole, 500 mM NaCl, 4°C, 4 h; eluted with 500 mM imidazole; western blot with Myc-tag and β-tubulin antibodies; β-tubulin normalised to precipitated Myc-MAP7D1

Sequence of UniProt Q3KQU3 (Q3KQU3 whole entry R201W): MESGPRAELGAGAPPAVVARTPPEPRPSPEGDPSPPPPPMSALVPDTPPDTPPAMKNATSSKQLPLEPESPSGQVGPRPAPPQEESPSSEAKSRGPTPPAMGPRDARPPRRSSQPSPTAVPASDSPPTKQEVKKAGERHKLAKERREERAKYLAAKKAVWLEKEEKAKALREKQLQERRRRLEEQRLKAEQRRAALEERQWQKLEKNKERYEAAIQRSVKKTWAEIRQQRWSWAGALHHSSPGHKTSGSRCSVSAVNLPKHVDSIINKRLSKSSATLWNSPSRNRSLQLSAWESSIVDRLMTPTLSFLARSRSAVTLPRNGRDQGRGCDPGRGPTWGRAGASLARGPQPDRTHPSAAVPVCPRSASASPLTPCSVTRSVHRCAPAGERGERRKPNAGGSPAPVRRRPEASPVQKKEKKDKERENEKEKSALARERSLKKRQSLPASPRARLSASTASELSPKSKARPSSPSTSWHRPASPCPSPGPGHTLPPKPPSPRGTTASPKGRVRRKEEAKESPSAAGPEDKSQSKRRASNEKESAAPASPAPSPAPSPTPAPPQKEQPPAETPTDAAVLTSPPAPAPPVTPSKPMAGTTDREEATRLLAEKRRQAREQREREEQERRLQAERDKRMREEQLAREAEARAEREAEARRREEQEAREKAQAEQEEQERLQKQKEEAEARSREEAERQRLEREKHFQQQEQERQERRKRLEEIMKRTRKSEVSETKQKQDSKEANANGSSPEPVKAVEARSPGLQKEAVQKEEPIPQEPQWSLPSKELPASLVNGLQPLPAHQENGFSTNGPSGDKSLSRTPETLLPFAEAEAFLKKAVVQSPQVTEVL

“β-tubulin (tubulin of microtubules) (from UniProt P07437 1-444) (natural protein)” gave a decrease of co-precipitated tubulin relative to wild-type MAP7D1 of 40%.
